Publication PMC9482650, “Quantitative fragmentomics allow affinity mapping of interactomes” (Nature Communications, 2022)

T1: APBA2_1, Q99767
T1 sequence (Q99767 563-664, limits assumed, looked up): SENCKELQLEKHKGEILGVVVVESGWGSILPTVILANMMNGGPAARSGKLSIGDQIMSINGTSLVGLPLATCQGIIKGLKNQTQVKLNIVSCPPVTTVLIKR

T2: APBA3_1, O96018
T2 sequence (O96018 389-490, limits assumed, looked up): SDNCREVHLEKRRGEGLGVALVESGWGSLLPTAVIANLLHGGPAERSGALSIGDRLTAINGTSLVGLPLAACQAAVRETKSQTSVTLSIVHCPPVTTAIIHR

T3: GRIP1_7, Q9Y3R0
T3 sequence (Q9Y3R0 999-1096, limits assumed, looked up): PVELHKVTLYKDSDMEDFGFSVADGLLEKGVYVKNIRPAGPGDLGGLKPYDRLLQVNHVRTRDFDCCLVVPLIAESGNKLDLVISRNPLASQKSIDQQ

T4: HTRA4, P83105
T4 sequence (P83105 378-476, limits assumed, looked up): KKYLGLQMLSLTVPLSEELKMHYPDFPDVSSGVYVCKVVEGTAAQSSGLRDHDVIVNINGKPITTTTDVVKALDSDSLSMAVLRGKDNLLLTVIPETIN

T5: LNX2_3, Q8N448
T5 sequence (Q8N448 463-564, limits assumed, looked up): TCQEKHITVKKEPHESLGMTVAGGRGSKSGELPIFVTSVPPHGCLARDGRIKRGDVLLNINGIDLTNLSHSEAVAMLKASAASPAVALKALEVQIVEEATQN

T6: MPP6, Q9NZW5
T6 sequence (Q9NZW5 125-219, limits assumed, looked up): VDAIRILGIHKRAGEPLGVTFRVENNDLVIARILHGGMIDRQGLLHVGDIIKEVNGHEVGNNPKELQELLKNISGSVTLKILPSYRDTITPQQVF

T7: PDZD2_2, O15018
T7 sequence (O15018 329-429, limits assumed, looked up): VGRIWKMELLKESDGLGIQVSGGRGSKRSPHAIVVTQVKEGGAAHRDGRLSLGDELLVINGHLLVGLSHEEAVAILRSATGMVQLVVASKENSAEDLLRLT

T8: RADIL, Q96JH8
T8 sequence (Q96JH8 971-1071, limits assumed, looked up): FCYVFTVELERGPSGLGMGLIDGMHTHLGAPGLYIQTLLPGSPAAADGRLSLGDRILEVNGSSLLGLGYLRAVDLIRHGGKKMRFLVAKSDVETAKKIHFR

T9: RAPGEF6, Q8TEU7
T9 sequence (Q8TEU7 525-625, limits assumed, looked up): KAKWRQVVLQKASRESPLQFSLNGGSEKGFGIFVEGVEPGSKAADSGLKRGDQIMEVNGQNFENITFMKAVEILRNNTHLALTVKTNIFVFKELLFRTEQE

T10: SNTB1, Q13884
T10 sequence (Q13884 107-205, limits assumed, looked up): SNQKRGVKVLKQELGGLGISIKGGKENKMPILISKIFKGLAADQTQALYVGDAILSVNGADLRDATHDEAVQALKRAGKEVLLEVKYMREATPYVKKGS

T11: SNTG1, Q9NSN8
T11 sequence (Q9NSN8 52-150, limits assumed, looked up): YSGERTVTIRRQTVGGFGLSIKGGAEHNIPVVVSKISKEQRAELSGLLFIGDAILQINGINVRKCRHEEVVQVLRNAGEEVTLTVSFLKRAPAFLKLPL

T12: TIAM2, Q8IVF5
T12 sequence (Q8IVF5 885-986, limits assumed, looked up): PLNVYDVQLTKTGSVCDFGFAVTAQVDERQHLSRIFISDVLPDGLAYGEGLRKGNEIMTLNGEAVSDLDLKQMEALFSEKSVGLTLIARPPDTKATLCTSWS

B1: ABCA7, Q8IZY2 (peptide)
chain: DDPSTAETVL
B2: BPIFA2, Q96DR5 (peptide)
chain: QHKTQLQTLI
B3: GJD4, Q96KN9 (peptide)
chain: HLRARKSEWV
B4: TRAF7, Q6Q0C0 (peptide)
chain: VDSTVKVWTC

Tests used:
Assay in all cases: holdup assay
Set-up in all cases: key: below the threshold = too weak to quantify, mostly under pKd 3.1 to 4
Conditions in all cases: plain residues with an end cap or a label only (N-terminal biotin on a linker: ado-ado)
[1] = target: T1, APBA2_1, Q99767
[2] = target: T2, APBA3_1, O96018
[3] = target: DLG1_1, Q12959
[4] = target: DLG4_1, P78352
[5] = target: DLG5_1, Q8TDM6
[6] = target: FRMPD2_2, Q68DX3
[7] = target: T3, GRIP1_7, Q9Y3R0
[8] = target: GRIP2_4, Q9C0E4
[9] = target: GRIP2_5, Q9C0E4
[10] = target: GRIP2_6, Q9C0E4
[11] = target: T4, HTRA4, P83105
[12] = target: Inadl_2, Q8NI35
[13] = target: Inadl_3, Q8NI35
[14] = target: Inadl_5, Q8NI35
[15] = target: LIMK2, P53671
[16] = target: T5, LNX2_3, Q8N448
[17] = target: T6, MPP6, Q9NZW5
[18] = target: PDLIM1, O00151
[19] = target: T7, PDZD2_2, O15018
[20] = target: T8, RADIL, Q96JH8
[21] = target: T9, RAPGEF6, Q8TEU7
[22] = target: T10, SNTB1, Q13884
[23] = target: T11, SNTG1, Q9NSN8
[24] = target: T12, TIAM2, Q8IVF5
[25] = target: TJP1_3, Q07157
Sequence of TJP1_3, Q07157 (Q07157 416-512): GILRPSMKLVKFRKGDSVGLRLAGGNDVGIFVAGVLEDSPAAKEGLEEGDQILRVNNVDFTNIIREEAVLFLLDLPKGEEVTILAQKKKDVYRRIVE

Sequence of DLG5_1, Q8TDM6 (Q8TDM6 617-713): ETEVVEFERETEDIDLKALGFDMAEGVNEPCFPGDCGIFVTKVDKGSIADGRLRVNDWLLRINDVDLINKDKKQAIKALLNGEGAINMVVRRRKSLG
Sequence of Inadl_2, Q8NI35 (Q8NI35 238-335): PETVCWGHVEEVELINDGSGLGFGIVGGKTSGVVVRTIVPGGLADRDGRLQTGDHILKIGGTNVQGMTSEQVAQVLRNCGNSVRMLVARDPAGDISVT
Sequence of PDLIM1, O00151 (O00151 1-87): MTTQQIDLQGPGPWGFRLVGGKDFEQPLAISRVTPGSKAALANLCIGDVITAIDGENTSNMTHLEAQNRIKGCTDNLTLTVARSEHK
Sequence of FRMPD2_2, Q68DX3 (Q68DX3 944-1038): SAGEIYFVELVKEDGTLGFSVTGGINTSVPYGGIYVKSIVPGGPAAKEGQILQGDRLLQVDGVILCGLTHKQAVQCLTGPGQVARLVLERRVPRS
Sequence of Inadl_5, Q8NI35 (Q8NI35 673-780): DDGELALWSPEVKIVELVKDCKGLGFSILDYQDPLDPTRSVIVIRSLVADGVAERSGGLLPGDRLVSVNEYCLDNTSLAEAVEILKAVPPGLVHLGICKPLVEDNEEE
Sequence of GRIP2_4, Q9C0E4 (Q9C0E4 446-548): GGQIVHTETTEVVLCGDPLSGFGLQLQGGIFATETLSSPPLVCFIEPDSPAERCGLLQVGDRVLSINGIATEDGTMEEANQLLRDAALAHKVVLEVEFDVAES
Sequence of LIMK2, P53671 (P53671 143-248): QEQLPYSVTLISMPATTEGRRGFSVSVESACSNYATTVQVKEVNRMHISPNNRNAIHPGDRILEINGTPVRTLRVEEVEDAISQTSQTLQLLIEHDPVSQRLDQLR
Sequence of Inadl_3, Q8NI35 (Q8NI35 359-469): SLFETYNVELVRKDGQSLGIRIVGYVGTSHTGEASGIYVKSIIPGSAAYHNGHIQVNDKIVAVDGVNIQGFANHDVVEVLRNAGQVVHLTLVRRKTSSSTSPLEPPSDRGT
Sequence of GRIP2_6, Q9C0E4 (Q9C0E4 648-740): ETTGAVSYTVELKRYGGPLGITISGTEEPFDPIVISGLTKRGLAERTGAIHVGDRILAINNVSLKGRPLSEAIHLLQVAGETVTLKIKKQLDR
Sequence of GRIP2_5, Q9C0E4 (Q9C0E4 544-642): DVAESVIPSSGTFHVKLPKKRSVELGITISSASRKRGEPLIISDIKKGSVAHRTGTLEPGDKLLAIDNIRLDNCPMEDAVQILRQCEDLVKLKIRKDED
Sequence of DLG4_1, P78352 (P78352 62-152): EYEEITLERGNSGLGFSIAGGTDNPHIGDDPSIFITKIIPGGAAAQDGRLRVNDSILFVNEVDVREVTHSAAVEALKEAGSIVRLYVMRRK

Binder | pKd [1] | pKd [2] | pKd [3] | pKd [4] | pKd [5] | pKd [6] | pKd [7] | pKd [8] | pKd [9] | pKd [10] | pKd [11] | pKd [12] | pKd [13] | pKd [14] | pKd [15] | pKd [16] | pKd [17] | pKd [18] | pKd [19] | pKd [20] | other results
B1 | below the threshold | below the threshold | below the threshold | below the threshold | below the threshold | below the threshold | below the threshold | below the threshold | below the threshold | below the threshold | below the threshold | below the threshold | 3.73 | below the threshold | below the threshold | below the threshold | below the threshold | below the threshold | below the threshold | 3.52 | pKd [21]: below the threshold; pKd [22]: 4.87; pKd [23]: 3.66; pKd [24]: 3.99; pKd [25]: below the threshold
B2 | below the threshold | below the threshold | 4.34 | 4.38 | 3.48 | below the threshold | below the threshold | below the threshold | below the threshold | below the threshold | below the threshold | below the threshold | 3.93 | below the threshold | below the threshold | below the threshold | below the threshold | below the threshold | 4.25 | 3.91 | pKd [21]: below the threshold; pKd [22]: 3.49; pKd [23]: 3.47; pKd [24]: below the threshold; pKd [25]: below the threshold
B3 | below the threshold | below the threshold | below the threshold | below the threshold | below the threshold | below the threshold | below the threshold | below the threshold | below the threshold | below the threshold | 4.51 | below the threshold | below the threshold | 5.11 | below the threshold | below the threshold | below the threshold | below the threshold | 5.81 | 4.85 | pKd [21]: 3.5; pKd [22]: below the threshold; pKd [23]: 3.6; pKd [24]: 4.1; pKd [25]: 4.67
B4 | below the threshold | below the threshold | below the threshold | below the threshold | 3.56 | below the threshold | below the threshold | below the threshold | below the threshold | 4.94 | 4.14 | 3.65 | 4.4 | below the threshold | below the threshold | below the threshold | below the threshold | below the threshold | 4.27 | 4.2 | pKd [21]: 3.57; pKd [22]: below the threshold; pKd [23]: 3.61; pKd [24]: 4.22; pKd [25]: below the threshold
